The text below walks through data of publication PMC6901440.

The assay concerns the target Bcl-2 recombinant protein, P10415. Kind of assay: in vitro binding of Bcl-2 recombinant protein to immunoprecipitated Flag-GSDMD, western blot with band values printed under the Bcl-2 blot. Particulars: chain shown with the change; incubated for one hour, then heavily washed; parent: 1.

Sequence of Bcl-2 recombinant protein, P10415 (P10415 whole entry): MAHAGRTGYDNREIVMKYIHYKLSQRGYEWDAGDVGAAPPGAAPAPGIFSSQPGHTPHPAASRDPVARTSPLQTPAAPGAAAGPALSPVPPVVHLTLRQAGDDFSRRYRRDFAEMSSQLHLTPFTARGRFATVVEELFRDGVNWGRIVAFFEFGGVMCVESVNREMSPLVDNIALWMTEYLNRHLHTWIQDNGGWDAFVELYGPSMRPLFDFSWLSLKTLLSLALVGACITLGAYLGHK

B1: Flag-GSDMD full length, P57764 L150Q (protein)
chain: MGSAFERVVRRVVQELDHGGEFIPVTSLQSSTGFQPYCLVVRKPSSSWFWKPRYKCVNLSIKDILEPDAAEPDVQRGRSFHFYDAMDGQIQGSVELAAPGQAKIAGGAAVSDSSSTSMNVYSLSVDPNTWQTLLHERHLRQPEHKVLQQQRSRGDNVYVVTEVLQTQKEVEVTRTHKREGSGRFSLPGATCLQGEGQGHLSQKKTVTIPSGSTLAFRVAQLVIDSDLDVLLFPDKKQRTFQPPATGHKRSTSEGAWPQLPSGLSMMRCLHNFLTDGVPAEGAFTEDFQGLRAEVETISKELELLDRELCQLLLEGLEGVLRDQLALRALEEALEQGQSLGPVEPLDGPAGAVLECLVLSSGMLVPELAIPVVYLLGALTMLSETQHKLLAEALESQTLLGPLELVGSLLEQSAPWQERSTMSLPPGLLGNSWGEGAPAWVLLDECGLELGEDTPHVCWEPQAQGRMCALYASLALLSGLSQEPH
For the molecule B1, the ratio to parent is 0.45.
